# From patent publication US20250368729A1
# Assays:
# [1] = target: synthetic amyloid-like fibrils of recombinant amyloidogenic λ6 variable domain protein (rVλ6Wil); test: EuLISA, fibrils coated on plate (FIG. 13A)
# [2] = target: synthetic amyloid-like fibrils of recombinant amyloidogenic λ6 variable domain protein (rVλ6Wil); test: EuLISA, fibrils coated on plate (FIG. 13B)
Binder,EC50 [1] [nM],EC50 [2] [nM]
"humanized antibody VH6/VL3 (antibody, V domains shown) VH: QVQLQESGPGLVKPSETLSLTCTVSGFSLSSYGVSWVRQPPGKGLEWLGVIWGDGSTNYHPNLMSRLSISKDTSKNQFSLKLSSVTAADTATYYCVTLDYWGQGTSVTVSS VL: DVVMTQSPLSLPVTLGQPASISCRSSQSLVHRNGNTYLHWYLQRPGQSPRLLIYKVSNRFSGVPDRFSGSGSGTDFTLKISRVEAEDVGLYFCFQTTYVPNTFGGGTKLEIK",95,95
"humanized antibody VH7/VL4 (antibody, V domains shown) VH: QVQLQESGPGLVKPSETLSLTCTVSGFSLSSYGVSWIRQPPGKGLEWIGVIWGDGSTNYHPNLMSRVTISKDTSKNQVLLKLSSVTAADTAVYYCVTLDYWGQGTSVTVSS VL: DVVMTQSPLSLPVTLGQPASISCRSSQSLVHRNGNTYLHWFQQRPGQSPRLLIYKVSNRFSGVPDRFSGSGSGTDFTLKISRVEAEDVGVYFCFQTTYVPNTFGGGTKLEIK",75,
"humanized antibody VH10/VL4 (antibody, V domains shown) VH: QVQLQESGPGLVKPSETLSLTCTVSGFSLSSYGVSWIRQPPGKGLEWLGVIWGDGSTNYHPNLMSRLSISKDTSKSQVLLKLSSVTAADTAVYYCVTLDYWGQGTSVTVSS VL: DVVMTQSPLSLPVTLGQPASISCRSSQSLVHRNGNTYLHWFQQRPGQSPRLLIYKVSNRFSGVPDRFSGSGSGTDFTLKISRVEAEDVGVYFCFQTTYVPNTFGGGTKLEIK",17,
"humanized antibody VH8/VL4 (antibody, V domains shown) VH: QVQLQESGPGLVKPSETLSLTCTVSGFSLSSYGVSWIRQPPGKGLEWIGVIWGDGSTNYHPNLMSRVTISKDTSKSQFSLKLSSVTAADTAVYYCVTLDYWGQGTSVTVSS VL: DVVMTQSPLSLPVTLGQPASISCRSSQSLVHRNGNTYLHWFQQRPGQSPRLLIYKVSNRFSGVPDRFSGSGSGTDFTLKISRVEAEDVGVYFCFQTTYVPNTFGGGTKLEIK",16,
